We go through two molecules from patent US20090181459A1 (published 2009).

Experiment [1] concerns the target mouse glucocorticoid-induced tumor necrosis factor receptor (mGITR), expressed on the cell surface (mouse) (UniProt O35714). The experiment can be described thus: flow cytometry on Th1 clone R2.2; isotype control background. For orientation: In flow cytometry, cells or beads pass a laser one at a time.
The target is the same in experiment [2]. The experiment can be described thus: flow cytometry on Th2 clone R2.4; isotype control background.
Experiment [3] addresses mouse glucocorticoid-induced TNF receptor ligand (mGITRL), expressed on the cell surface (mouse) (UniProt Q7TS55). The experiment can be described thus: flow cytometry, peritoneal cells gated on F4/80+; isotype control background.
For experiment [4] the target is unchanged. The experiment is described as follows: flow cytometry, spleen cells gated on B220+ B cells; isotype control background.
The target is the same in experiment [5]. The experiment is described as follows: flow cytometry, spleen cells gated on F4/80+ macrophages; isotype control background.
In experiment [6] the target is T1, mouse glucocorticoid-induced tumor necrosis factor receptor (mGITR), expressed on the cell surface (mouse, UniProt O35714 20-228).
T1 sequence (looked up): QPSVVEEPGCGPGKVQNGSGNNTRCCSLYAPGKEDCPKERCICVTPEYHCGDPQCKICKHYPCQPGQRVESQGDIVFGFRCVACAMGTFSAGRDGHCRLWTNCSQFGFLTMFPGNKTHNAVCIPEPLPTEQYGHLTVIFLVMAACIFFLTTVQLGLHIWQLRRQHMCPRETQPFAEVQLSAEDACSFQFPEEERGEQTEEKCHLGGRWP
The experiment can be described thus: cell-based or functional assay.

Regarding “isotype control antibody (rat anti-canine CD8 antibody, IgG1)”, the Median fluorescence intensity (MFI) was found to be 35.2 in experiment [1], 50.5 in experiment [2], 7.7 in experiment [4] and 25.4 in experiment [5]. In experiment [3], this molecule gave an MFI of 255.

B1: mouse glucocorticoid-induced TNF receptor ligand (mGITRL), expressed on the cell surface (ligand)
chain: MEEMPLRESSPQRAERCKKSWLLCIVALLLMLLCSLGTLIYTSLKPTAIESCMVKFELSSSKWHMTSPKPHCVNTTSDGKLKILQSGTYLIYGQVIPVDKKYIKDNAPFVVQIYKKNDVLQTLMNDFQILPIGGVYELHAGDNIYLKFNSKDHIQKNNTYWGIILMPDLPFIS
On to B1, for which, in experiment [6], the “Luciferase activity (NF-kB reporter plasmid), 48-h incubation” value turned out to be 6 fold.
